Assay results taken from patent publication US20160002357A1 (Pfizer, published 2016).
Residue numbers refer to the chain shown, from its start. Read-outs that look alike come from different tables or passages of the source.

B1: anti-P-cadherin scFv 153 (parental clone 153), displayed on phage (scFv, V domains shown)
VH: EVQLVQSGAEVKKPGASVKVSCKASGYTFTSYGISWVRQAPGQGLEWMGWISAYNGNTNYAQKLQGRVTMTTDTSTSTAYMELRSLRSDDTAVYYCATIDTANAFGIWGQGTMVTVSS
VL: QSVLTQPPSVSAAPGQKVTISCSGSSSNIGNNYVSWYQQLPGTAPKLLIYDNNKRPSGIPDRFSGSKSGTSATLGITGLQTGDEADYYCGTWDSSLSGVVFGGGTKLTVL
notes: scFv expressed on the surface of phage
B2: anti-P-cadherin scFv 153 alanine-mutant L3.3-Ala (scFv, V domains shown)
VH: B1 VH
VL: B1 VL with W92A
notes: scFv on phage
B3: anti-P-cadherin scFv 153 alanine-mutant L3.2-Ala (scFv, V domains shown)
VH: B1 VH
VL: B1 VL with T91A
notes: scFv on phage
B4: anti-P-cadherin scFv 153 alanine-mutant L2.7-Ala (scFv, V domains shown)
VH: B1 VH
VL: B1 VL with S57A
notes: scFv on phage
B5: anti-P-cadherin scFv 153 alanine-mutant L2.2-Ala (scFv, V domains shown)
VH: B1 VH
VL: B1 VL with N52A
notes: scFv on phage
B6: anti-P-cadherin scFv 153 alanine-mutant L3.9-Ala (scFv, V domains shown)
VH: B1 VH
VL: B1 VL with G98A
notes: scFv on phage
B7: anti-P-cadherin scFv 153 alanine-mutant L3.4-Ala (scFv, V domains shown)
VH: B1 VH
VL: B1 VL with D93A
notes: scFv on phage
B8: anti-P-cadherin scFv 153 alanine-mutant L3.1-Ala (scFv, V domains shown)
VH: B1 VH
VL: B1 VL with G90A
notes: scFv on phage
B9: anti-P-cadherin scFv 153 alanine-mutant L2.3-Ala (scFv, V domains shown)
VH: B1 VH
VL: B1 VL with N53A
notes: scFv on phage
B10: anti-P-cadherin scFv 153 alanine-mutant L3.8-Ala (scFv, V domains shown)
VH: B1 VH
VL: B1 VL with S97A
notes: scFv on phage
B11: anti-P-cadherin scFv 153 alanine-mutant L2.4-Ala (scFv, V domains shown)
VH: B1 VH
VL: B1 VL with K54A
notes: scFv on phage
B12: anti-P-cadherin scFv 153 alanine-mutant L3.10-Ala (scFv, V domains shown)
VH: B1 VH
VL: B1 VL with V99A
notes: scFv on phage
B13: anti-P-cadherin scFv 153 alanine-mutant L2.5-Ala (scFv, V domains shown)
VH: B1 VH
VL: B1 VL with R55A
notes: scFv on phage
B14: anti-P-cadherin scFv 153 alanine-mutant L2.6-Ala (scFv, V domains shown)
VH: B1 VH
VL: B1 VL with P56A
notes: scFv on phage
B15: anti-P-cadherin scFv 153 alanine-mutant L3.7-Ala (scFv, V domains shown)
VH: B1 VH
VL: B1 VL with L96A
notes: scFv on phage
B16: anti-P-cadherin scFv 153 alanine-mutant L3.5-Ala (scFv, V domains shown)
VH: B1 VH
VL: B1 VL with S94A
notes: scFv on phage
B17: anti-P-cadherin scFv 153 alanine-mutant L3.11-Ala (scFv, V domains shown)
VH: B1 VH
VL: B1 VL with V100A
notes: scFv on phage
B18: anti-P-cadherin scFv 153 alanine-mutant L3.6-Ala (scFv, V domains shown)
VH: B1 VH
VL: B1 VL with S95A
notes: scFv on phage
B19: 153 EK-DART (P-CAD 153 x CD3-2) (bispecific antibody)
chain 1: QSVLTQPPSVSAAPGQKVTISCSGSSSNIGNNYVSWYQQLPGTAPKLLIYDNNKRPSGIPDRFSGSKSGTSATLGITGLQTGDEADYYCGTWDSSLSGVVFGGGTKLTVLGGGSGGGGEVQLVESGGGLVQPGGSLRLSCAASGFTFNTYAMNWVRQAPGKGLEWVARIRSKYNNYATYYADSVKDRFTISRDDSKNSLYLQMNSLKTEDTAVYYCVRHGNFGNSYVSWFAYWGQGTLVTVSSGGCGGGKVAALKEKVAALKEKVAALKEKVAALKE
chain 2: QAVVTQEPSLTVSPGGTVTLTCRSSTGAVTTSNYANWVQQKPGQAPRGLIGGTNKRAPWTPARFSGSLLGGKAALTITGAQAEDEADYYCALWYSNLWVFGGGTKLTVLGGGGSGGGGEVQLVQSGAEVKKPGASVKVSCKASGYTFTSYGISWVRQAPGQGLEWMGWISAYNGNTNYAQKLQGRVTMTTDTSTSTAYMELRSLRSDDTAVYYCATIDTANAFGIWGQGTMVTVSSGGCGGGEVAALEKEVAALEKEVAALEKEVAALEK
B20: 177 EK-DART (bispecific antibody)
chain 1: B19 chain 1 with G98A, V99Y, G103T, L107V
chain 2: B19 chain 2 with G224D
notes: the K-coil chain is assembled from parts with CD3-2 VH
B21: 178 EK-DART (bispecific antibody)
chain 1: B19 chain 1 with G98A
chain 2: B19 chain 2 with G224D
B22: 165 EK-DART (bispecific antibody)
chain 1: B19 chain 1 with T81A, G98A, V99Y, G103T, L107V
chain 2: B19 chain 2 with G224D
B23: 179 EK-DART (bispecific antibody)
chain 1: B19 chain 1 with S26R, N52S, G98S, V99W
chain 2: B19 chain 2 with G224D
B24: 180 EK-DART (bispecific antibody)
chain 1: B19 chain 1 with L4V, G98A, V99Y, G103T, L107V
chain 2: B19 chain 2 with G224D
notes: also called P-CAD 180 EK-DART (CD3-2)
B25: 154 EK-DART (bispecific antibody)
chain 1: B19 chain 1 with G98S, V99Y, G103T, L107V
chain 2: B19 chain 2 with N221T, G224D

Columns and labels:
[1] = molecular target: T1, P-cadherin-ECD1-3-Fc protein (human P-cadherin-Fc) (human, UniProt P22223 108-440); assay: phage scFv ELISA, coated P-cadherin-ECD1-3-Fc
T1 construct: Construct was expressed with signal peptide and pro-peptide (PACE co-transfected to process the propeptide); not shown: hinge and CH2 and CH3 domains of human IgG1
T1 sequence (P22223 108-440): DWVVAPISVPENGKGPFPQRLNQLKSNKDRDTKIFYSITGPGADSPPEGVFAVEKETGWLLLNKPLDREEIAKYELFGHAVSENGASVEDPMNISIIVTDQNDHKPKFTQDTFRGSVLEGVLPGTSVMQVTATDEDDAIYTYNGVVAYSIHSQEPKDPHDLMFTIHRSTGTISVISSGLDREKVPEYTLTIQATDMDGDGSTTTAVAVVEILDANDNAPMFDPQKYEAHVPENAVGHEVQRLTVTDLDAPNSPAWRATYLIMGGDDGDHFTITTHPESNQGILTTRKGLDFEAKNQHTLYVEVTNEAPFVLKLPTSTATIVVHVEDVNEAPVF
Procedure: (§1) P-cadherin-ECD1-3-Fc protein or negative control protein was coated overnight at 4° C. on 96-well Nunc Maxisorp® plates (Thermo Fisher Scientific, Madison, Conn.) at a concentration of 2 μg/mL in PBS+Ca²⁺ and Mg²⁺. Plates were washed three times using PBS+Ca²⁺ and Mg²⁺ and blocked for 1 hour at room temperature in 3% milk/PBS+Ca²⁺ and Mg²⁺. Phage samples prepared as described above were added to the blocked plates for 1 hour at room temperature. Plates were washed three times with PBS+Ca²⁺ and Mg²⁺ prior to the addition of secondary antibody (anti M13-HRP 1:2000, GE Healthcare, Piscataway, N.J.). Plates were incubated for a further 1 hour at room temperature and washed six times with PBS+Ca²⁺ and Mg²⁺. Signal was developed using TMB (SurModics, Eden Prairie, Minn.), the reaction stopped with H₂SO₄ and the absorbance read at 450 nm on an EnVision® plate reader (Perkin Elmer, Waltham, Mass.).

[2] = molecular target: T1, P-cadherin-ECD1-3-Fc protein (human …); assay: phage scFv ELISA, coated P-cadherin-ECD1-3-Fc; remark: listed apart in the source
Procedure: ScFvs may be expressed on the surface of a phage particle. To prepare phage expressing scFv on their surface, 96-deep well plates containing 1 mL 2× TY media with 2% glucose/100 μg/mL ampicillin were inoculated with 0.5-1 μL from thawed glycerol stocks (one clone per well) using the QPix™2 Colony picker (Molecular Devices, Sunnyvale Calif.) and grown at 37° C. (900 rpm) for ˜4 hours. Next, 5 μL of a 1:29 dilution of helper phage (8.3×10¹³ pfu) was added and the plates and incubated for a further 30 minutes at 37° C. with no shaking then 1 hour at 300 rpm. Plates were centrifuged and the media was replaced with a kanamycin/non-glucose containing media (2× TY with 50 μg/mL kanamycin and 100 μg/mL ampicillin). Plates were grown overnight at 25° C. (900 rpm), and phage were harvested in the supernatant following centrifugation.
as §1

[3] = molecular target: human P-cadherin, cell surface expressed (human, UniProt P22223 108-829); assay: cell-based or functional assay
Sequence of human P-cadherin, cell surface expressed (P22223 108-829): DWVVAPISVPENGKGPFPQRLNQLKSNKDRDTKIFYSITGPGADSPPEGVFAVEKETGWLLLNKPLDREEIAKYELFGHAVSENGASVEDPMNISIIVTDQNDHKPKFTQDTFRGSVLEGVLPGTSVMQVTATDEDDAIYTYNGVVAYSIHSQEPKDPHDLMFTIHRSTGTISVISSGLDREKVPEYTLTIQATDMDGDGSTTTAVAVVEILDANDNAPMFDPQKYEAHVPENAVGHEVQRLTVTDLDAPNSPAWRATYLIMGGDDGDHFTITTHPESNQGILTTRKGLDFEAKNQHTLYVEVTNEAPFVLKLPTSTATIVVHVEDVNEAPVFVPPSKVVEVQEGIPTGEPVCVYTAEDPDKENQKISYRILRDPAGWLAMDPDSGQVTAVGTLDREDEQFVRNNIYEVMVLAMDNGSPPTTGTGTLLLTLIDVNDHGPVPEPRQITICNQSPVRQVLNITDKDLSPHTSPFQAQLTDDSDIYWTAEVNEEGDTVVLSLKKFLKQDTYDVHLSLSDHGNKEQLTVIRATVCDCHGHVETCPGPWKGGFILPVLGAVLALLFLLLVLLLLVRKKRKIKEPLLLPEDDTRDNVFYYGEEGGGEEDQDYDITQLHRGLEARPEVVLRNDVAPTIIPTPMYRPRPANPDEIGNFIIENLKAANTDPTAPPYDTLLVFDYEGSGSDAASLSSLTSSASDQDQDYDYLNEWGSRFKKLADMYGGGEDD

[4] = molecular target: T2, cynomolgus monkey P-cadherin ECD (cynomolgus monkey); assay: SPR Biacore
T2 construct: extracellular domain; also called cyno P-cadherin ECD; Cyno P-cadherin
Procedure: Binding affinity of EK-DART proteins to P-cadherin and CD3 was analyzed by SPR using a BIACORE® 3000 biosensor (GE Healthcare). The antigens huCD3εδ and either human P-cadherin-Fc or human/cynomolgus monkey/murine P-cadherin-ECD were immobilized on the CM-5 sensor chip by amine coupling kit as recommended by the manufacturer. […] All EK-DART proteins in Tables 15 and 16 comprise CD3-2.
All EK-DART proteins in Table 17 comprise CD3-2.

Binder | % of binding of Clone #153 to human P-cadherin-Fc [2] [%] | Human P-cadherin-Fc binding (OD450) [2] [OD450] | Z Score [2] | other results
B1 | 100 | 1.32 | 0 | % of binding of Clone #153 to human P-cadherin-Fc [1]: 100%; Human P-cadherin-Fc binding (OD450) [1]: 1.32 OD450; Z Score [1]: 0
B2 | 14 | 0.18 | -1.8 | 
B3 | 61 | 0.81 | -0.8 | 
B4 | 163 | 2.16 | 1.3 | 
B5 | 102 | 1.35 | 0 | 
B6 | 166 | 2.19 | 1.4 | 
B7 | 70 | 0.92 | -0.6 | 
B8 | 153 | 2.02 | 1.1 | 
B9 | 74 | 0.98 | -0.5 | 
B10 | 173 | 2.28 | 1.5 | 
B11 | 161 | 2.13 | 1.3 | 
B12 | 141 | 1.86 | 0.9 | 
B13 | 170 | 2.25 | 1.5 | 
B14 | 172 | 2.28 | 1.5 | 
B15 | 173 | 2.29 | 1.6 | 
B16 | 163 | 2.16 | 1.3 | 
B17 | 104 | 1.38 | 0.1 | 
B18 | 173 | 2.29 | 1.5 | 
B19 |  |  |  | T cell directed cytotoxicity EC50, H1650 LDH 24 hr 30:1 D41183 [3]: 0.0008 nM; T cell directed cytotoxicity EC50, HCT116 Luc 48 hr 10:1 D43905 [3]: 0.0005 nM
B20 |  |  |  | Kd [4]: 0.483 nM; koff [4]: 0.000383 s⁻¹; kon [4]: 802000 M⁻¹ s⁻¹
B21 |  |  |  | Kd [4]: 1.31 nM; koff [4]: 0.000216 s⁻¹; kon [4]: 167000 M⁻¹ s⁻¹
B22 |  |  |  | Kd [4]: 0.37 nM; koff [4]: 0.000309 s⁻¹; kon [4]: 834000 M⁻¹ s⁻¹
B23 |  |  |  | Kd [4]: 4.17 nM; koff [4]: 0.00458 s⁻¹; kon [4]: 1.11e+06 M⁻¹ s⁻¹
B24 |  |  |  | Kd [4]: 0.966 nM; koff [4]: 0.000744 s⁻¹; kon [4]: 771000 M⁻¹ s⁻¹
B25 |  |  |  | Kd [4]: 3.93 nM; koff [4]: 0.0039 s⁻¹; kon [4]: 1.04e+06 M⁻¹ s⁻¹
